US20220372484A1

Molecular target: human FPR2 (transcript variant 1; Origene) fused with mGFP (human) (UniProt P25090)
Assay: cell-based or functional assay

Substance: LL37 peptide (from UniProt P49913 134-170)
- Inhibition (%) of forskolin-mediated cAMP production: 46%
